Results taken from publication PMC10933793.
Ends that are not written are not given here.

Molecular target: PL^pro domain of SARS-CoV-2 nsp3 (E746-T1063) (SARS-CoV-2)

B1: K193-branched IRF3_(189-197)-ISG15 oligopeptide 4 (peptide)
chain 1: ENPLKRLLV-NH2
chain 2: LSTVFMNLRLRGG
modifications: also: lactam at chain A 5 at chain B 13 to a chain's C-terminus
With B1 the PL^pro-catalysed isopeptide amide bond hydrolysis by SPE-MS, time course to ~240 min (0.2 uM PL^pro, 2.0 uM peptide, 50 mM Tris pH 8.0, ambient temperature) was 20%.
